In patent publication US20160115223A1:

Biological target: Aβ42 fibers (UniProt P05067)
Assay: cell-based or functional assay

Aβ42 fibers, sequence (P05067 672-713 limits assumed): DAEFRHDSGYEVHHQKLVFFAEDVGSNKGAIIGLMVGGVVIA

| EC50, cellulose acetate filter retardation assay (disaggregation) | Substance |
| --- | --- |
| 100 nM | N1-N2-hIgG1-Fc fusion protein (SEQ ID NO:1) (from UniProt O34714 1-385) |

Biological target: Aβ42 fibers (UniProt P05067)
Assay: ELISA, Aβ42 fibers on plate; IC50(variant)/IC50(SEQ ID NO: 3)

| Substance | IC50 Relative to SEQ ID NO: 3 |
| --- | --- |
| N1-N2-human IgG Fc fusion protein of SEQ ID NO: 3 with T51P | 0.2 |
| N1-N2-human IgG Fc fusion protein of SEQ ID NO: 3 with W181H | 0.87 |
| N1-N2-human IgG Fc fusion protein of SEQ ID NO: 3 with M176G | 0.3 |
| N1-N2-human IgG Fc fusion protein of SEQ ID NO: 3 with D178G (from UniProt P69168 19-274) | 0.2 |
| N1-N2-human IgG Fc fusion protein of SEQ ID NO: 3 with M135R (from UniProt P69168 19-274) | 0.1 |
| N1-N2-human IgG Fc fusion protein of SEQ ID NO: 3 with G48K (from UniProt P69168 19-274) | 1.1 |
| N1-N2-human IgG Fc fusion protein of SEQ ID NO: 3 with S173G (from UniProt P69168 19-274) | 0.2 |
| N1-N2-human IgG Fc fusion protein of SEQ ID NO: 3 with G48R (from UniProt P69168 19-274) | 1.9 |
| N1-N2-human IgG Fc fusion protein of SEQ ID NO: 3 with T51R | 2 |
| N1-N2-human IgG Fc fusion protein of SEQ ID NO: 3 with Y54P | 0.07 |
| N1-N2-human IgG Fc fusion protein of SEQ ID NO: 3 with M135N (from UniProt P69168 19-274) | 0.3 |
| N1-N2-human IgG Fc fusion protein of SEQ ID NO: 3 with M176N (from UniProt P69168 19-274) | 0.5 |
| N1-N2-human IgG Fc fusion protein of SEQ ID NO: 3 with S173P | 0.4 |
| N1-N2-human IgG Fc fusion protein of SEQ ID NO: 3 with D178T | 0.4 |
| N1-N2-human IgG Fc fusion protein of SEQ ID NO: 3 with W181G | 0.5 |
| N1-N2-human IgG Fc fusion protein of SEQ ID NO: 3 with T51N | 0.5 |
| N1-N2-human IgG Fc fusion protein of SEQ ID NO: 3 with G48S | 1.2 |
| N1-N2-human IgG Fc fusion protein of SEQ ID NO: 3 with T51Q | 0.8 |
| N1-N2-human IgG Fc fusion protein of SEQ ID NO: 3 with M135G | 0.2 |
| N1-N2-human IgG Fc fusion protein of SEQ ID NO: 3 with M135A (from UniProt P69168 19-274) | 0.4 |
| N1-N2-human IgG Fc fusion protein of SEQ ID NO: 3 with M135H (from UniProt P69168 19-274) | 0.1 |

Second part, the substance after the results:

| IC50 Relative to SEQ ID NO: 3 | Substance |
| --- | --- |
| 0.2 | N1-N2-human IgG Fc fusion protein of SEQ ID NO: 3 with F141D |
| 0.3 | N1-N2-human IgG Fc fusion protein of SEQ ID NO: 3 with R140D |
| 0.3 | N1-N2-human IgG Fc fusion protein of SEQ ID NO: 3 with W181K |
| 0.2 | N1-N2-human IgG Fc fusion protein of SEQ ID NO: 3 with R140H |
| 0.77 | N1-N2-human IgG Fc fusion protein of SEQ ID NO: 3 with T56H |
| 0.2 | N1-N2-human IgG Fc fusion protein of SEQ ID NO: 3 with R140G (from UniProt P69168 19-274) |
| 0.2 | N1-N2-human IgG Fc fusion protein of SEQ ID NO: 3 with M176R |
| 0.8 | N1-N2-human IgG Fc fusion protein of SEQ ID NO: 3 with T51G (from UniProt P69168 19-274) |
| 1 | N1-N2-human IgG Fc fusion protein of SEQ ID NO: 3 with G48T |
| 0.2 | N1-N2-human IgG Fc fusion protein of SEQ ID NO: 3 with M176K (from UniProt P69168 19-274) |
| 1.8 | N1-N2-human IgG Fc fusion protein of SEQ ID NO: 3 with G48H |
| 0.3 | N1-N2-human IgG Fc fusion protein of SEQ ID NO: 3 with D178S |
| 0.2 | N1-N2-human IgG Fc fusion protein of SEQ ID NO: 3 with R140A |
| 0.6 | N1-N2-human IgG Fc fusion protein of SEQ ID NO: 3 with D178Q |
| 0.5 | N1-N2-human IgG Fc fusion protein of SEQ ID NO: 3 with M135D (from UniProt P69168 19-274) |
| 0.3 | N1-N2-human IgG Fc fusion protein of SEQ ID NO: 3 with Y54H |
| 0.3 | N1-N2-human IgG Fc fusion protein of SEQ ID NO: 3 with R140E |
| 1.5 | N1-N2-human IgG Fc fusion protein of SEQ ID NO: 3 with T51H (from UniProt P69168 19-274) |
| 0.4 | N1-N2-human IgG Fc fusion protein of SEQ ID NO: 3 with M176H |
| 2.5 | N1-N2-human IgG Fc fusion protein of SEQ ID NO: 3 with T51K |
| 0.8 | N1-N2-human IgG Fc fusion protein of SEQ ID NO: 3 with T56R (from UniProt P69168 19-274) |
| 0.2 | N1-N2-human IgG Fc fusion protein of SEQ ID NO: 3 with F141E (from UniProt P69168 19-274) |
| 0.1 | N1-N2-human IgG Fc fusion protein of SEQ ID NO: 3 with T56G |
